Test results published in article PMC3561337.

T1: full length WT dynamin-1 (UniProt Q05193)
T1 sequence: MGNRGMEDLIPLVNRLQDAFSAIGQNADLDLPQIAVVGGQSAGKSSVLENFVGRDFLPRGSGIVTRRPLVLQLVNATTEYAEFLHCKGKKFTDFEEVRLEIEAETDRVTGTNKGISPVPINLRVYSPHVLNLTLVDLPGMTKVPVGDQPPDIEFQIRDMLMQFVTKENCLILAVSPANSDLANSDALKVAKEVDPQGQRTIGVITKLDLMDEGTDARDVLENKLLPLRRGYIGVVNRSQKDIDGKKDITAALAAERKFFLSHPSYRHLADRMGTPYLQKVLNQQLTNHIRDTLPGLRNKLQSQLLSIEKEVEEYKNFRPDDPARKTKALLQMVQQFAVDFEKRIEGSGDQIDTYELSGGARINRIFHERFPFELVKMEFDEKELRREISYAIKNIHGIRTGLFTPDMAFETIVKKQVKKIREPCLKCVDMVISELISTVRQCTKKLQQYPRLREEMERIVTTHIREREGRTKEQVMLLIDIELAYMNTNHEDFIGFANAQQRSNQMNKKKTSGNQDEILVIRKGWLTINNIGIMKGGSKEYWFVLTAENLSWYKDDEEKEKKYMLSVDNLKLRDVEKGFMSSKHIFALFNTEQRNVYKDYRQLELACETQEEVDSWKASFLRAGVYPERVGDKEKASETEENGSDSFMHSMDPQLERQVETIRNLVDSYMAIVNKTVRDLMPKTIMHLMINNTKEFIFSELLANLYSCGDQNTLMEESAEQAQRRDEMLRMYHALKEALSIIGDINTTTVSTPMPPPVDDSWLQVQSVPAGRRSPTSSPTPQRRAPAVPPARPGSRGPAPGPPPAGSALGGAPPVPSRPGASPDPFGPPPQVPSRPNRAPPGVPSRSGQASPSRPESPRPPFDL


Biological target: T1, full length WT dynamin-1

Row | inhibition of fission activity (vesicle release from SUPER templates) of 0.5 µM WT dynamin-1 by increasing S45N (∼50% at mutant:WT 0.5; value given at 1:1), 1 mM GTP, room temperature [%] | inhibition of fission activity (vesicle release from SUPER templates) of 0.5 µM WT dynamin-1 by increasing Q40E (∼50% at mutant:WT 0.5; value given at 1:1), 1 mM GTP, room temperature [%] | Binder
1 | 80 |  | full length S45N dynamin-1 (enzyme) MGNRGMEDLIPLVNRLQDAFSAIGQNADLDLPQIAVVGGQSAGKNSVLENFVGRDFLPRGSGIVTRRPLVLQLVNATTEYAEFLHCKGKKFTDFEEVRLEIEAETDRVTGTNKGISPVPINLRVYSPHVLNLTLVDLPGMTKVPVGDQPPDIEFQIRDMLMQFVTKENCLILAVSPANSDLANSDALKVAKEVDPQGQRTIGVITKLDLMDEGTDARDVLENKLLPLRRGYIGVVNRSQKDIDGKKDITAALAAERKFFLSHPSYRHLADRMGTPYLQKVLNQQLTNHIRDTLPGLRNKLQSQLLSIEKEVEEYKNFRPDDPARKTKALLQMVQQFAVDFEKRIEGSGDQIDTYELSGGARINRIFHERFPFELVKMEFDEKELRREISYAIKNIHGIRTGLFTPDMAFETIVKKQVKKIREPCLKCVDMVISELISTVRQCTKKLQQYPRLREEMERIVTTHIREREGRTKEQVMLLIDIELAYMNTNHEDFIGFANAQQRSNQMNKKKTSGNQDEILVIRKGWLTINNIGIMKGGSKEYWFVLTAENLSWYKDDEEKEKKYMLSVDNLKLRDVEKGFMSSKHIFALFNTEQRNVYKDYRQLELACETQEEVDSWKASFLRAGVYPERVGDKEKASETEENGSDSFMHSMDPQLERQVETIRNLVDSYMAIVNKTVRDLMPKTIMHLMINNTKEFIFSELLANLYSCGDQNTLMEESAEQAQRRDEMLRMYHALKEALSIIGDINTTTVSTPMPPPVDDSWLQVQSVPAGRRSPTSSPTPQRRAPAVPPARPGSRGPAPGPPPAGSALGGAPPVPSRPGASPDPFGPPPQVPSRPNRAPPGVPSRSGQASPSRPESPRPPFDL
2 |  | 60 | full length Q40E dynamin-1 (enzyme) MGNRGMEDLIPLVNRLQDAFSAIGQNADLDLPQIAVVGGESAGKSSVLENFVGRDFLPRGSGIVTRRPLVLQLVNATTEYAEFLHCKGKKFTDFEEVRLEIEAETDRVTGTNKGISPVPINLRVYSPHVLNLTLVDLPGMTKVPVGDQPPDIEFQIRDMLMQFVTKENCLILAVSPANSDLANSDALKVAKEVDPQGQRTIGVITKLDLMDEGTDARDVLENKLLPLRRGYIGVVNRSQKDIDGKKDITAALAAERKFFLSHPSYRHLADRMGTPYLQKVLNQQLTNHIRDTLPGLRNKLQSQLLSIEKEVEEYKNFRPDDPARKTKALLQMVQQFAVDFEKRIEGSGDQIDTYELSGGARINRIFHERFPFELVKMEFDEKELRREISYAIKNIHGIRTGLFTPDMAFETIVKKQVKKIREPCLKCVDMVISELISTVRQCTKKLQQYPRLREEMERIVTTHIREREGRTKEQVMLLIDIELAYMNTNHEDFIGFANAQQRSNQMNKKKTSGNQDEILVIRKGWLTINNIGIMKGGSKEYWFVLTAENLSWYKDDEEKEKKYMLSVDNLKLRDVEKGFMSSKHIFALFNTEQRNVYKDYRQLELACETQEEVDSWKASFLRAGVYPERVGDKEKASETEENGSDSFMHSMDPQLERQVETIRNLVDSYMAIVNKTVRDLMPKTIMHLMINNTKEFIFSELLANLYSCGDQNTLMEESAEQAQRRDEMLRMYHALKEALSIIGDINTTTVSTPMPPPVDDSWLQVQSVPAGRRSPTSSPTPQRRAPAVPPARPGSRGPAPGPPPAGSALGGAPPVPSRPGASPDPFGPPPQVPSRPNRAPPGVPSRSGQASPSRPESPRPPFDL
